Paper doi:10.1101/2022.04.18.488656, “HNRNPH1 destabilizes the G-quadruplex structures formed by G-rich RNA sequences that regulate the alternative splicing of an oncogenic fusion transcript”

T1: HNRNPH1 qRRM1-2 (UniProt P31943 11-188)
T1 sequence: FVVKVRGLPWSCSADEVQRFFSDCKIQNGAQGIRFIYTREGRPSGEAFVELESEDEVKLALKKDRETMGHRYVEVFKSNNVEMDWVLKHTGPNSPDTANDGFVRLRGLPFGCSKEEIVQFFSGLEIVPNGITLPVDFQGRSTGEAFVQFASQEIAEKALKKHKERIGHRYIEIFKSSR

T2: HNRNPF (UniProt P52597 1-415)
T2 sequence: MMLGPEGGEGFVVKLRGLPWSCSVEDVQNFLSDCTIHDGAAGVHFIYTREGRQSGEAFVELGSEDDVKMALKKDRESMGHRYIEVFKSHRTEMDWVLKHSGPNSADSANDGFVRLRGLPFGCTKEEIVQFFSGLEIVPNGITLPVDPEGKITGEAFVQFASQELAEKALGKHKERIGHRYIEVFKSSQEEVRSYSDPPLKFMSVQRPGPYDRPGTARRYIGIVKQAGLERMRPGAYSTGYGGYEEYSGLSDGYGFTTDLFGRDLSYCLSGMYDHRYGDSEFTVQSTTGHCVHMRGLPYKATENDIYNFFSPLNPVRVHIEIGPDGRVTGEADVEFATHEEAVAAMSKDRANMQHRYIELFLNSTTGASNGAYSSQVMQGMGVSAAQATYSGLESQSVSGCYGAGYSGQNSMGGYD

T3: HNRNPH1 full-length (UniProt P31943 1-449)
T3 sequence: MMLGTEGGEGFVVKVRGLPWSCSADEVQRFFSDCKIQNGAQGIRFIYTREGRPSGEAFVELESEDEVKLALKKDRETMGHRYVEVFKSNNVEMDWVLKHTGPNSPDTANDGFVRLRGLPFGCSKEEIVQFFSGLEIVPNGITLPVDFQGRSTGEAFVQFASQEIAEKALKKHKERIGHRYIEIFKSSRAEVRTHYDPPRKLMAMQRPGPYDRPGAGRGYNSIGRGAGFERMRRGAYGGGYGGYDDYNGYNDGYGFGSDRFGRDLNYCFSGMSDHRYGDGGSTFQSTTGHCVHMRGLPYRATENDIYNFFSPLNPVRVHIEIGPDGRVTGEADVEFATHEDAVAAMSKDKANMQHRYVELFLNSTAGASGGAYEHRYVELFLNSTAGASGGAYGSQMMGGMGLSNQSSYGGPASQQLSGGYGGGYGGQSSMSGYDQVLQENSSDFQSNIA


Assays:
HNRNPH1 qRRM1-2 = target: T1, HNRNPH1 qRRM1-2; assay: BLI; 150 mM KCl; BLI: 10 mM Tris-HCl pH 7.4, 150 mM KCl, 0.005% P-20, 1 mM EDTA; EMSA: 10 mM Tris-HCl pH 7.4, 1 mM EDTA, 150 mM KCl, room temp, 3 nM RNA; FRET: same Tris/EDTA with 25 mM KCl, room temp; conditions: protein: recombinant; label: 5'-biotin; parallel two-tier G4, intramolecular
HNRNPF = target: T2, HNRNPF; assay: as above; conditions: protein: recombinant; label: 5'-biotin; parallel two-tier G4, intramolecular
HNRNPH1 full-length = target: T3, HNRNPH1 full-length; assay: BLI; 150 mM KCl (G4); BLI: 10 mM Tris-HCl pH 7.4, 150 mM KCl, 0.005% P-20, 1 mM EDTA; EMSA: 10 mM Tris-HCl pH 7.4, 1 mM EDTA, 150 mM KCl, room temp, 3 nM RNA; FRET: same Tris/EDTA with 25 mM KCl, room temp; conditions: protein: recombinant, tags: FLAG, label: 5'-biotin
[1] = parallel two-tier G4, intramolecular

Binder	Kd (HNRNPH1 qRRM1-2)	Kd (HNRNPF)	Kd (HNRNPH1 full-length; [1])	Kd (HNRNPH1 full-length; parallel two-tier G4)
ACCGGGGCAGGGGAAGAGGGGGAUU (structured_RNA) [rG1]	6 ± 0.8 nM	0.34 nM	1.08 ± 0.53 nM	–
GGGCGGGGAGGAGGACGCGGUGGAAUGGG (structured_RNA) [rG3]	4 ± 0.7 nM	0.35 nM	1.39 ± 0.54 nM	–
GGUGGGCGGGGAGGAGGACGCGGUGGAAU (structured_RNA) [rG2]	–	–	–	3.1 ± 0.7 nM
